The results in this text go back to US8871909B2, “Antibodies inhibiting c-Met dimerization and uses thereof” (Pierre Fabre Medicament, priority 2007, dated 2014).

One assay relates to BxPC3 cells. Nature of the assay: In vitro inhibition of BxPC3 proliferation ([3H]thymidine incorporation). In kind it is cell-based. The note with it: BxPC3, in absence of ligand, antibody alone. As to the method:
For that purpose 50 000 BxPC3 cells were plated in 96 well plates in RPMI medium, 2 mM L. Glutamine, without SVF. […] After 3 days, cells were pulsed with 0.5 μCi of [^3H]thymidine for 16 hours. The magnitude of [^3H]thymidine incorporated into trichloroacetic acid-insoluble DNA was quantified by liquid scintillation counting. Results were expressed as raw data to really evaluate the intrinsic agonistic effect of each Mab (FIGS. 2A and 2B).
For orientation: Uptake of a labelled nucleoside into DNA is a usual measure of proliferation.

A further assay has as its target T1, HGF-cMet (Homo sapiens, UniProt P08581).
T1 construct: recombinant c-Met-Extra-Cellular Domain (ECD) fused to an human IgG Fc domain
Nature of the assay: HGF-cMet competition assay (ELISA). The format is binding. To be noted: purified murine antibodies. From the text: FIG. 54: HGF-cMet competition assay. In this ELISA-based assay, recombinant Fc-cMET residual binding to plastic coated HGF in the presence of purified murine monoclonal antibodies 11E1, 224G11 and 227H1 was detected with […] and measured at 450 nm;
FIG. 58: HGF-cMet competition assay of 227H1 murine and recombinant antibodies. In this ELISA-based assay, recombinant Fc-cMet residual binding to plastic coated HGF in the presence of the different forms of the 227H1 antibody was detected with a biotinylated unrelated anti-cMet antibody. Purified murine 227H1 monoclonal antibody, chimeric and HZ4VH-derived humanized 227H1-derived recombinant antibodies were tested and compared for their abilities to compete with HGF-cMet binding when measured at 450 nm;
Humanization of the anti-cMet antibodies were performed independently for each chain and sequentially, regarding to the analysed amino acids in each variable domain. The humanization process was evaluated in a first attempt in an ELISA-based binding assay to recombinant Fc-cMet; binding activities the humanized antibodies being compared to the recombinant chimeric antibody. In a second attempt, anti-cMet humanized antibodies were evaluated for their abilities to displace the Fc-cMet binding onto plastic-coated recombinant HGF; this competition assay allowing the direct comparison of murine, chimeric and humanized versions of the anti-cMet antibodies.
These two assays were used to characterize the recombinant chimeric and humanized versions of the murine anti-cMet antibodies. To this end, briefly, anti-cMet variable domains, either murine or humanized, were cloned into LONZA's pCONplus expression vectors series and recombinant IgG1/κ-derived antibodies were expressed in CHO cells. […] Both direct binding and HGF-competition assays were assessed to better characterize recombinant chimeric or humanized versions.
On the technique in general: ELISA stands for enzyme-linked immunosorbent assay.

The target of the next assay is T2, SEMA domain (Homo sapiens, UniProt P08581).
T2 construct: the recombinant c-Met-Fc protein and the recombinant SEMA domain
T2 sequence (P08581 27-515 limits assumed): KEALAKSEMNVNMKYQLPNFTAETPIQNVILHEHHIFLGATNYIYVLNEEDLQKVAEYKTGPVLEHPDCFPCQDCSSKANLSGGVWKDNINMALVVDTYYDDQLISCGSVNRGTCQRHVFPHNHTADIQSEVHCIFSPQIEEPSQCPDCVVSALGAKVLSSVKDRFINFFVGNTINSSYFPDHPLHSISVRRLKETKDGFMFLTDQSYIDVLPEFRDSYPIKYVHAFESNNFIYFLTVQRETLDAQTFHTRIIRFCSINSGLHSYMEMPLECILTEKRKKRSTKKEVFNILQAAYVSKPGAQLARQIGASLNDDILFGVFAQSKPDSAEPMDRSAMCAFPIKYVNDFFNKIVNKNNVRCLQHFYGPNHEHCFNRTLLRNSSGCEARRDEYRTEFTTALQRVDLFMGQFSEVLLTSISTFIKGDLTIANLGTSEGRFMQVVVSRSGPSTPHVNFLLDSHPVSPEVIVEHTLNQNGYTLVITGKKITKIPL
In words: ELISA recognition of recombinant SEMA domain. The format is binding. The protocol: To characterize the pattern of recognition of the 3 selected antibodies, 3 ELISA have been set up with the recombinant c-Met protein, its monomeric fragment (obtained by cleavage of the recombinant c-Met-Fc protein and the recombinant SEMA domain.
To perform these ELISA the human dimeric c-Met protein (R&D sytems, cat#358MT) is coated at the concentration of 0.7 μg/ml in PBS overnight at 4° C. After saturation of the plates (Costar #3690) with a 0.5% gelatin solution 2 hours at 37° C., hybridoma supernatants are incubated 1 hour at 37° C. Once rinsed with PBS, the anti-mouse HRP-antibody (Jackson ImmunoResearch, catalog #115-035-164) is added to each well at a 1/5000 dilution in ELISA buffer (0.1% gelatin/0.05% Tween 20 in PBS) and the plates incubated for 1 hour at 37° C. […] The reaction is left to occur for 5 min at room temperature. The reaction is stopped by the addition of 50 μl/well of a 1 M H2SO4 solution and read on a plate reader at 450 nm. The same kind of protocol was performed on monomeric c-Met and SEMA domain but in that cases proteins were coated at 5 and 3 μg/ml respectively.

The next assay concerns NCI-H441. In words: NCI-H441 xenograft model (Example 11). From the text: The evaluation of anti-c-met antibodies on the in vivo activity of this non autocrine cell line could give some insights about their potency to impact on c-met dimerization.
For assay [1], the target named is T3, recombinant c-Met-Extra-Cellular Domain (ECD) fused to an human IgG Fc domain (Homo sapiens, UniProt P08581).
T3 construct: recombinant c-Met-Extra-Cellular Domain (ECD) fused to an human IgG Fc domain (R&D Systems) as antigen; purchased R&D Systems
T3 sequence (P08581 25-932 limits assumed): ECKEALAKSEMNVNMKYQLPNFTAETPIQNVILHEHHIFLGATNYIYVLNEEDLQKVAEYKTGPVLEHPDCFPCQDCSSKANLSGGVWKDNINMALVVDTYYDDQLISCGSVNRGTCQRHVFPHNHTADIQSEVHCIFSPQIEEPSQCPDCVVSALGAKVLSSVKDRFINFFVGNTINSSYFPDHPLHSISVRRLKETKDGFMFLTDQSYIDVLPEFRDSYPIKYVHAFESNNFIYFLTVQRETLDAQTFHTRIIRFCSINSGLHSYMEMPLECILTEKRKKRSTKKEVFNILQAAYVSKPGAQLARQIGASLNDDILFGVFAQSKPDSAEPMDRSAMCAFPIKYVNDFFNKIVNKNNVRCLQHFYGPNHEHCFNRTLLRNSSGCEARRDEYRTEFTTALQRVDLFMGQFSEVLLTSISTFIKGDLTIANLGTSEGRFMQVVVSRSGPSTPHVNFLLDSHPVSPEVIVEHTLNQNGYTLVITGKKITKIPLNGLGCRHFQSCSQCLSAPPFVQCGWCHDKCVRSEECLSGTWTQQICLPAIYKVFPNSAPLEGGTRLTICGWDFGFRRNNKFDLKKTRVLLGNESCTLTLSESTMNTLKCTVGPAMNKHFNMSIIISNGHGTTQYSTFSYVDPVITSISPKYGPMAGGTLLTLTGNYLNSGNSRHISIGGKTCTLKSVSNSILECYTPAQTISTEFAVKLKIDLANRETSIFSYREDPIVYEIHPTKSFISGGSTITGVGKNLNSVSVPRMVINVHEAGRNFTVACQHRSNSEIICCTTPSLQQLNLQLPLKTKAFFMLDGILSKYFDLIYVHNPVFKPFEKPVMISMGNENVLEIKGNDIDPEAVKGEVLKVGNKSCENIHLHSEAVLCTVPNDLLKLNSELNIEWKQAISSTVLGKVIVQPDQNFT
In words: Determination of affinity constants (KD) by Biacore analysis. The format is binding. To be noted: text summary of table 4; read-out: affinity for recombinant c-Met-Fc fusion protein. From the text: The binding affinity of purified 11E1 and 224G11 antibodies was investigated by BIAcore X using recombinant c-Met-Extra-Cellular Domain (ECD) fused to an human IgG Fc domain (R&D Systems) as antigen (MW=129 kDa). As both c-Met-Fc fusion proteins and antibodies are bivalent compounds, Fab fragments of mAbs 11E1 and 224G11 (MW=50 kDa) were generated by papain cleavage, purified and used in this assay to avoid interference with avidity parameter. For the assay, an anti-Tag histidine capture antibody was coated on CM5 sensorchips. The running buffer was HBS-EP, the flow rate was 30 μl/min and the test was performed at 25° C. Soluble c-Met (ECD_M1)2-Fc-(HHHHHH)2 antigen was captured on the sensorchip (around 270 RU), and the antibodies to be tested were used in solution as analytes. The sensorship was regenerated using Glycine, HCl pH 1.5 buffer on both flowcells for half a minute.

The subject of another assay is SK-HEP-1 cells. In words: Three-dimensional tubulogenesis assay. In kind it is cell-based. To be noted: SK-HEP-1, antibody 10 μg/ml; for inhibitory effect on tube formation in presence of HGF: HGF 100 ng/ml; for agonist effect on tube formation, alone: no HGF. The protocol:
SK-HEP-1 cells were seeded at 1·10^4 cells/well in a 24-well plate in DMEM with 10% FCS/Matrigel (50/50) and incubated for 30 min before addition, at the same time, of HGF (100 ng/ml) and antibodies to be tested (10 μg/ml). After 7 days incubation, cells were assessed for tube formation visually. Each tested condition was tested as a triplicate and 3 independent experiments were performed.

A further assay deals with HUVEC. Nature of the assay: HUVEC tube formation. The format is cell-based. To be noted: HGF 50 ng/ml. As to the method:
For evaluation of HUVEC tube formation, 25000 cells incubated 30 min with antibodies to be tested were plated in 48-well plates coated with matrigel. Then HGF 50 ng/ml was added and plates were incubated at 37° C. Medium was then harvested and […] CMFDA was added for 15 min before microscopic observation.

T1 sequence (P08581 25-932 limits assumed): as above

B1: 224G11: murine anti-c-Met monoclonal antibody, IgG1 kappa; heavy chain SEQ ID No. 18, light chain SEQ ID No. 21 (antibody, V domains shown)
VH: EVQLQQSGPELVKPGASVKISCKTSGYIFTAYTMHWVRQSLGESLDWIGGIKPNNGLANYNQKFKGKATLTVDKSSSTAYMDLRSLTSEDSAVYYCARSEITTEFDYWGQGTALTVSS
VL: DIVLTQSPASLAVSLGQRATISCRASESVDSYANSFMHWYQQKPGQPPKLLIYRASNLESGIPARFSGSGSRTDFTLTINPVEADDVATYYCQQSKEDPLTFGSGTKLEMK
modifications: mus musculus
As to B1, the “agonist activity on cell proliferation” value with BxPC3 cells is listed as “without any agonist activity”. In addition, the “maximum of HGF binding displacement” value with HGF-cMet (at high antibody concentration) stood at 100%. In the assay with SEMA domain, the “binding to SEMA domain” value is “did not bind”. In the assay on NCI-H441, the “inhibition of in vivo growth of NCI-H441” value was “inhibited significantly”. In addition, the Kd in assay [1] is about 0.04 nM. In the assay on SK-HEP-1 cells, the “inhibitory effect on tube formation in presence of HGF” value (shortened to “inhibitory effect on tube formation”) is “partial but significant inhibition” and the “agonist effect on tube formation, alone” value is “No agonistic effect”. Besides, the “effect on HGF-induced tube formation” value in the assay on HUVEC was “inhibit dramatically”.

B2: 11E1: murine anti-c-Met monoclonal antibody, IgG1 kappa; heavy chain SEQ ID No. 62, light chain SEQ ID No. 63 (antibody, V domains shown)
VH: QVQLQQSGAELAKPGASVKMSCKASGYTFTSYWMNWVKQRPGQGLEWIGYINPTTGSTDYNQKLKDKATLTADKSSNTAYMQLSSLTSEDSAVYYCAIGGYGSWFAYWGQGTLVTVSA
VL: QIVLTQSPAIMSASPGEKVTLTCSASSSVSSTYLYWYQQKPGSSPKLWIYTTSILASGVPARFSGSGSGTSYSLTISSMETEDAASYFCHQWSSYPFTFGSGTKLDIK
modifications: mus musculus
In the case of B2, the “agonist activity on cell proliferation” value with BxPC3 cells is listed as “without any agonist activity”. In the assay with HGF-cMet, the “HGF-cMet binding competition activity” value is on record as “moderate, not full but reliable competitive activity”. Moreover, in the assay with SEMA domain, the “binding to SEMA domain” value is reported as “able to bind”. Also, in the assay with NCI-H441, the “inhibition of in vivo growth of NCI-H441” value is listed as “inhibited significantly”. Also, the Kd in assay [1] is about 0.04 nM. For the same molecule, in the assay on SK-HEP-1 cells, the “inhibitory effect on tube formation” value was “full inhibitory effect” and the “agonist effect on tube formation, alone” value is on record as “No agonistic effect”. Besides, in the assay with HUVEC, the “effect on HGF-induced tube formation” value is recorded as “inhibit dramatically”.

B3: 223C4: murine anti-c-Met monoclonal antibody, IgG1 kappa; heavy chain SEQ ID No. 20, light chain SEQ ID No. 23 (antibody, V domains shown)
VH: EVLLQQSGPELVKPGASVKIPCKASGYTFTDYNMDWVKQSHGMSLEWIGDINPNNGGTIFNQKFKGKATLTVDKSSSTAYMELRSLTSEDTAVYYCARGRYVGYYYAMDYWGQGTSVTVSS
VL: DIQMTQSPASLSVSVGETVTITCRASENIYSNLAWYQQKQGKSPQLLVYAATNLVDGVPSRFSGSGSGTQYSLKINSLQSEDFGSYYCQHFWGPPYTFGGGTKLEIK
modifications: mus musculus
For B3, the “agonist activity on cell proliferation” value with BxPC3 cells is “without any agonist activity”. Further, in the assay with SEMA domain, the “binding to SEMA domain” value is recorded as “did not bind”. In the assay on SK-HEP-1 cells, the “inhibitory effect on tube formation” value is recorded as “full inhibitory effect” and the “agonist effect on tube formation, alone” value is recorded as “No agonistic effect”.
